Assay results taken from article PMC11655841 (Cell Death & Disease, 2024).

What was measured:
[1] = biological target: the molecule itself; experiment: crystal structure; complex of DARPin and p73 domain mixed from purified proteins, isolated by SEC; sitting drop at 20 °C, 30% PEG2000MME, 0.15 M potassium bromide
DARPin 1800 [2] = experiment: ITC; target proteins (p53 family domains) titrated to constant concentrations of DARPin; 25 °C; 50 mM HEPES pH 7.4, 150 mM NaCl, 0.5 mM TCEP; MicroCal VP-ITC
DARPin 1800 [3] = experiment: crystal structure; complex of DARPin and p73 domain mixed from purified proteins, isolated by SEC; sitting drop at 20 °C, 30% PEG2000MME, 0.15 M potassium bromide; details: scale: DARPin 1800 per p73 OD
DARPin B9 [4] = experiment: ITC; target proteins (p53 family domains) titrated to constant concentrations of DARPin; 25 °C; 50 mM HEPES pH 7.4, 150 mM NaCl, 0.5 mM TCEP; MicroCal VP-ITC
DARPin B9 [5] = experiment: crystal structure; complex of DARPin and p73 domain mixed from purified proteins, isolated by SEC; sitting drop at 20 °C, 30% PEG2000MME, 0.15 M potassium bromide
[6] = biological target: DARPin B9-B9 (DARPin B9 fused to another DARPin B9 via a (G4S)4 linker); experiment: ITC; target proteins (p53 family domains) titrated to constant concentrations of DARPin; 25 °C; 50 mM HEPES pH 7.4, 150 mM NaCl, 0.5 mM TCEP; MicroCal VP-ITC
[7] = biological target: DARPin 1800 LZ (DARPin 1800 dimerized via a leucine zipper) (yeast) (UniProt P03069); experiment: as above
[8] = biological target: DARPin B9 LZ (DARPin B9 dimerized via a leucine zipper) (yeast) (UniProt P03069); experiment: as above
[9] = biological target: DARPin 1800–1800 (DARPin 1800 fused to another DARPin 1800 via a (G4S)4 linker); experiment: as above

B1: p73 oligomerization domain (aa 351–398 of TAp73α) (domain or fragment, UniProt O15350 351-398, looked up)
chain: DEDTYYLQVRGRENFEILMKLKESLELMELVPQPLVDSYRQQQQLLQR
- binding result [1]: binds
- Kd (DARPin 1800 [2]): 94.5 nM
- stoichiometry N (DARPin 1800 [3]): 2

B2: p73 SAM domain (aa 489–550 of TAp73α) (domain or fragment)
chain: ADPSLVSFLTGLGCPNCIEYFTSQGLQSIYHLQNLTIEDLGALKIPEQYRMTIWRGLQDLKQ
- Kd (DARPin B9 [4]): 58.8 nM
- stoichiometry N (p73 SAM domain per DARPin B9) (DARPin B9 [5]): 1

B3: p73 DBD-OD-SAM (amino acids 112–550 of TAp73α) (domain or fragment)
chain: APVIPSNTDYPGPHHFEVTFQQSSTAKSATWTYSPLLKKLYCQIAKTCPIQIKVSTPPPPGTAIRAMPVYKKAEHVTDVVKRCPNHELGRDFNEGQSAPASHLIRVEGNNLSQYVDDPVTGRQSVVVPYEPPQVGTEFTTILYNFMCNSSCVGGMNRRPILIIITLEMRDGQVLGRRSFEGRICACPGRDRKADEDHYREQQALNESSAKNGAASKRAFKQSPPAVPALGAGVKKRRHGDEDTYYLQVRGRENFEILMKLKESLELMELVPQPLVDSYRQQQQLLQRPSHLQPPSYGPVLSPMNKVHGGMNKLPSVNQLVGQPPPHSSAATPNLGPVGPGMLNNHGHAVPANGEMSSSHSAQSMVSGSHCTPPPPYHADPSLVSFLTGLGCPNCIEYFTSQGLQSIYHLQNLTIEDLGALKIPEQYRMTIWRGLQDLKQ
- Kd [6]: 46 nM
- Kd (DARPin 1800 [2]): 67 nM
- Kd [7]: 4 nM
- Kd (DARPin B9 [4]): 309 nM
- Kd [8]: 64 nM
- Kd [9]: 13 nM
